The values that follow come from PMC2172161 (The Journal of Cell Biology, 2004).

The chains are these.
T1: Cdc10 (Saccharomyces cerevisiae, UniProt P25342)
T1 sequence (P25342 1-322): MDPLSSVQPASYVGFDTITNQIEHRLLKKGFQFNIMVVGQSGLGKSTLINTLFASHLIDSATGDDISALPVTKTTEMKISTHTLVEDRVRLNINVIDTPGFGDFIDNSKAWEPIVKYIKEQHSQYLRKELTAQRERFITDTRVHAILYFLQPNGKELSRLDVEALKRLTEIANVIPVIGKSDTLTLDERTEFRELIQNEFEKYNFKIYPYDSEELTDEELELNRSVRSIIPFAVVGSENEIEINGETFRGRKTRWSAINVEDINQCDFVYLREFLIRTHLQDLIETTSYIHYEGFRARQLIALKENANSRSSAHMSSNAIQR

T2: Cdc12-His6 (Saccharomyces cerevisiae, UniProt P32468)
T2 sequence (P32468 1-407): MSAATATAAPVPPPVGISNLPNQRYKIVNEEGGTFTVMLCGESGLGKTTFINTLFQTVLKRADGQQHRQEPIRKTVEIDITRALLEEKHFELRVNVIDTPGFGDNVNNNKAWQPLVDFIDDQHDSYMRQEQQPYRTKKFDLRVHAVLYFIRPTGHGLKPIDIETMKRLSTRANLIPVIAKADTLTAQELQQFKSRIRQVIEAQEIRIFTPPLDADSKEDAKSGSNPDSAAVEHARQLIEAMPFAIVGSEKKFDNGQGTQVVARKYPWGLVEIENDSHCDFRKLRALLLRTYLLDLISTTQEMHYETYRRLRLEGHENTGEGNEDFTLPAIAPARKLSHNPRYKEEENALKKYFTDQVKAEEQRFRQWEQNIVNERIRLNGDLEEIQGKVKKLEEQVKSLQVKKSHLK

T3: Cdc12ΔC-His6 (Cdc12(Δ339–407)-His6) (Saccharomyces cerevisiae, UniProt P32468)
T3 sequence (P32468 1-338): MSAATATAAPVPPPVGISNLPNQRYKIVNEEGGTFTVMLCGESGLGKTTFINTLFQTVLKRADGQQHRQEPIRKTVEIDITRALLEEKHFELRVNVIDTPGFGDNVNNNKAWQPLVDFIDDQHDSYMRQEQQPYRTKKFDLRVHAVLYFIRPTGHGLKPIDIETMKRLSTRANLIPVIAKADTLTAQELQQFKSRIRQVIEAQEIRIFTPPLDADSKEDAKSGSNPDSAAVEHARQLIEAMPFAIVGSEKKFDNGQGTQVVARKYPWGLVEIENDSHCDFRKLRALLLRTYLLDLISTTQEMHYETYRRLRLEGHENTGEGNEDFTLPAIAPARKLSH

T4: GST-Cdc12 (S. cerevisiae, UniProt P32468 1-407)
T4 sequence: T2 sequence (P32468 1-407)

T5: GST-HSL1(833-1518) (S. cerevisiae, UniProt P34244 833-1518)
T5 sequence: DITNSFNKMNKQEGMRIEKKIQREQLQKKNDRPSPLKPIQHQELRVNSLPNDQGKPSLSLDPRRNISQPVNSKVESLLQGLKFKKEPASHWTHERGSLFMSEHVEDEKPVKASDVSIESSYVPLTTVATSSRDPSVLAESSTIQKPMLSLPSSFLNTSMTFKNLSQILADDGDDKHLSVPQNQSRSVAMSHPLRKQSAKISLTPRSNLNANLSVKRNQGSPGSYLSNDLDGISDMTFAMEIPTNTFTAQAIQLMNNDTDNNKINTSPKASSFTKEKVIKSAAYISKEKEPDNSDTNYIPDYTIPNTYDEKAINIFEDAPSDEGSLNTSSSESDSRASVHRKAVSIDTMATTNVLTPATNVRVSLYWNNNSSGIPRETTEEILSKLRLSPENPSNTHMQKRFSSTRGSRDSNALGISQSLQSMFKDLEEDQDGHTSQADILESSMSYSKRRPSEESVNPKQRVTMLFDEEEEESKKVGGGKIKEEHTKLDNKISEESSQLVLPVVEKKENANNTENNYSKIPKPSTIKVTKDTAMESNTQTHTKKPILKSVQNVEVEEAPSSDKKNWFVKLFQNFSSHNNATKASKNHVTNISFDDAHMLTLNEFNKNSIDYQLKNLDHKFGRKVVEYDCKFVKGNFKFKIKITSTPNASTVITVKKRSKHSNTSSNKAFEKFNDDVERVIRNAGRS

T6: GST-Cdc11 (S. cerevisiae, UniProt P32458 1-415)
T6 sequence: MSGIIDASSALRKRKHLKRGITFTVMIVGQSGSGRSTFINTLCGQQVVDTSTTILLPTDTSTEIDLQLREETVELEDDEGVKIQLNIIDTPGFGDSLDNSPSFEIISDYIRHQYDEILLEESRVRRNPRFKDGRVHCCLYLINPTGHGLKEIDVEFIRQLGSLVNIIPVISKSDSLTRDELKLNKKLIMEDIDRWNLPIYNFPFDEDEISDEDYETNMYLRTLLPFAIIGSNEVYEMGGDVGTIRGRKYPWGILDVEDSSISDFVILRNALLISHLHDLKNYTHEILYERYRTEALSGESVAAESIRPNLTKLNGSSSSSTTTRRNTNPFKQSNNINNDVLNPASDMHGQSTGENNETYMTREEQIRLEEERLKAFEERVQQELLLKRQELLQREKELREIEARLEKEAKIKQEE

T7: GST-Cdc3 (S. cerevisiae, UniProt P32457 1-520)
T7 sequence: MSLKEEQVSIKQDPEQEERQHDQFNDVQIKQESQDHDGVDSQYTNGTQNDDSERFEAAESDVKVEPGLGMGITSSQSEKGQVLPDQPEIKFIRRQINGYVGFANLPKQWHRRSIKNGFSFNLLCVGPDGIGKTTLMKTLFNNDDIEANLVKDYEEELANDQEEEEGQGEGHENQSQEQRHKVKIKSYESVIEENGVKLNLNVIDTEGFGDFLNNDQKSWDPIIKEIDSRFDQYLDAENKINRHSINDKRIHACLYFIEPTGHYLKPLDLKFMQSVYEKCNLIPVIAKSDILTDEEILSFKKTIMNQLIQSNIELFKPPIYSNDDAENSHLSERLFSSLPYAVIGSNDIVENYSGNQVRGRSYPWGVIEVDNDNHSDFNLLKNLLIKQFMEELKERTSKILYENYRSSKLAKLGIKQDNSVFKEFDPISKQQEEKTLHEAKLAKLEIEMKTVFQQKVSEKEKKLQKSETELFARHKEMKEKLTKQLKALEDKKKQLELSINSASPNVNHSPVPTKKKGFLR

B1: Cdc12-His6 (natural protein)
chain: T2 sequence (P32468 1-407)
B2: GST-Cdc10 (natural protein)
chain: T1 sequence (P25342 1-322)
B3: Cdc12(T48N)-His6 (natural protein)
chain: T2 sequence (P32468 1-407) with T48N

Numbering of substitutions follows the chain as printed. In names and notes the source's numbering stands. Read-outs that look alike come from different tables or passages of the source.

Assay [1] addresses His6Cdc12–Cdc3–Cdc10–Cdc11 complex (Saccharomyces cerevisiae, UniProt P25342+P32468). In words: binding of α[…]GTP to complex on Ni2+-NTA beads. As to conditions: labelled compound.
Another assay deals with T1, Cdc10. Briefly: GTPase, phosphate release from γ[…]GTP. Type of assay: biochemical. The settings on record: labelled compound.
Assay [2] concerns the target T2, Cdc12-His6. In words: GTPase, phosphate release from γ[…]GTP. Type of assay: biochemical. The settings on record: labelled compound.
The target in assay [3] is T2, Cdc12-His6. Briefly: filter binding of radiolabelled GTPγS. The settings on record: labelled compound.
The target in assay [4] is T3, Cdc12ΔC-His6 (Cdc12(Δ339–407)-His6). In words: filter binding of radiolabelled GTPγS. The settings on record: labelled compound.
The next assay has as its target T4, GST-Cdc12. In words: pull-down.
The target of a further assay is T5, GST-HSL1(833-1518). Briefly: pull-down.
In assay [5] the target is T6, GST-Cdc11. In words: pull-down.
Assay [6] has as its target T7, GST-Cdc3. Briefly: pull-down.
The assay “Cdc12(T48N)-His6” concerns the target B3. In words: pull-down.
Assay [7] addresses B1. Briefly: pull-down.
In assay [8] the target is T6, GST-Cdc11. In words: pull-down. This is another data set of the same source.
Assay [9] deals with T7, GST-Cdc3. In words: pull-down. The source holds these as a separate data set.

Regarding `Nc1nc2c(ncn2[C@@H]2O[C@H](COP(=O)(O)OP(=O)(O)OP(=O)(O)O)[C@@H](O)[C@H]2O)c(=O)[nH]1` [GTP], the “binding of α[32P]GTP to complex on Ni2+-NTA beads” value in [1] is given as “GTP binding to the His6Cdc12–Cdc3–Cdc10–Cdc11 complex”. The “GTPase, phosphate release from γ[32P]GTP” value on Cdc10 was “Only Cdc10 and Cdc12 displayed detectable GTPase activity above the background control”; at Cdc12-His6 [2], “Only Cdc10 and Cdc12 displayed detectable GTPase activity above the background control”.
With `Nc1nc2c(ncn2[C@@H]2O[C@H](COP(=O)(O)OP(=O)(O)OP(O)(O)=S)[C@@H](O)[C@H]2O)c(=O)[nH]1` [GTPγS], the “filter binding of radiolabelled GTPγS” value at Cdc12-His6 [3] was “Both full-length Cdc12 and Cdc12ΔC formed stable complexes with GTPγS over time”; in assay [4], “Both full-length Cdc12 and Cdc12ΔC formed stable complexes with GTPγS over time”.
In the case of B1, the binding result with GST-Cdc12, with GST-HSL1(833-1518), in the assay with GST-Cdc11 [5] and with GST-Cdc3 [6] was “binds” throughout.
In the case of B2, the binding result in the assay with Cdc12(T48N)-His6 and in the assay with Cdc12-His6 [7] was “binds” throughout.
As to B3, the binding result with GST-Cdc12, in the assay with GST-Cdc11 [8], with GST-HSL1(833-1518) and with GST-Cdc3 [9] was “binds” throughout.
